Paper PMC5908797, “Evolutionary plasticity of the NHL domain underlies distinct solutions to RNA recognition”
Changes are numbered by the printed parent chain.

How the values were obtained:
CeLIN41 filamin-NHL [1] = biological target: T1, CeLIN41 filamin-NHL (Caenorhabditis elegans, UniProt Q9U489 691-1147); assay: EMSA; FP: 20 mM HEPES, 200 mM NaCl, 0.05% Tween20, 100 nM Cy5-RNA, 30 min room temp; EMSA: 1x of 2x buffer (20 mM Hepes pH 8, 100 mM KCl, 200 mM NaCl, 0.2 mM EDTA, 20 mM DTT, 2 mM MgCl2, 2 mM CaCl2, 0.2 mM ZnSO4, 60% glycerol, heparin, E. coli tRNA), 5 uM protein stock (1 ul in 8 ul), ~2 nM RNA, room temp; conditions: protein: recombinant, tags: N-terminal Strep tag, TEV site, label: 32P (radioactive) body label
T1 sequence: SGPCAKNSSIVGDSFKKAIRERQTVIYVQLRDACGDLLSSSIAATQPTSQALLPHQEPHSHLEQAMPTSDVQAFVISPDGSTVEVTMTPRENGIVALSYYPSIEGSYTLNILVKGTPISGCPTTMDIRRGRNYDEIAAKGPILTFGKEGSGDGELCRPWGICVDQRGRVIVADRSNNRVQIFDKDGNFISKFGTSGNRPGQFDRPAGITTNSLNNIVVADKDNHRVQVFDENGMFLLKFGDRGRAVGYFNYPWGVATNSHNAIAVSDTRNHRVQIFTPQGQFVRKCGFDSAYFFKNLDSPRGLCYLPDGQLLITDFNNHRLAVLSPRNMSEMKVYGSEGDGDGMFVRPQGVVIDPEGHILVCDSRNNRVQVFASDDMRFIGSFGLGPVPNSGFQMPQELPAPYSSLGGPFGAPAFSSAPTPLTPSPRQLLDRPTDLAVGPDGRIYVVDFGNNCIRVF

CeLIN41 filamin-NHL [2] = biological target: T1, CeLIN41 filamin-NHL; assay: EMSA; restored to wild-type level; FP: 20 mM HEPES, 200 mM NaCl, 0.05% Tween20, 100 nM Cy5-RNA, 30 min room temp; EMSA: 1x of 2x buffer (20 mM Hepes pH 8, 100 mM KCl, 200 mM NaCl, 0.2 mM EDTA, 20 mM DTT, 2 mM MgCl2, 2 mM CaCl2, 0.2 mM ZnSO4, 60% glycerol, heparin, E. coli tRNA), 5 uM protein stock (1 ul in 8 ul), ~2 nM RNA, room temp; conditions: protein: recombinant; tags: N-terminal Strep tag, TEV site; label: 32P (radioactive) body label; stems restored by compensatory mutations
CeLIN41 filamin-NHL [3] = biological target: T1, CeLIN41 filamin-NHL; assay: fluorescence polarization; FP: 20 mM HEPES, 200 mM NaCl, 0.05% Tween20, 100 nM Cy5-RNA, 30 min room temp; EMSA: 1x of 2x buffer (20 mM Hepes pH 8, 100 mM KCl, 200 mM NaCl, 0.2 mM EDTA, 20 mM DTT, 2 mM MgCl2, 2 mM CaCl2, 0.2 mM ZnSO4, 60% glycerol, heparin, E. coli tRNA), 5 uM protein stock (1 ul in 8 ul), ~2 nM RNA, room temp; conditions: protein: recombinant, tags: N-terminal Strep tag, TEV site, label: 5'-Cy5, hairpin
CeLIN41 filamin-NHL [4] = biological target: T1, CeLIN41 filamin-NHL; assay: EMSA; restored; FP: 20 mM HEPES, 200 mM NaCl, 0.05% Tween20, 100 nM Cy5-RNA, 30 min room temp; EMSA: 1x of 2x buffer (20 mM Hepes pH 8, 100 mM KCl, 200 mM NaCl, 0.2 mM EDTA, 20 mM DTT, 2 mM MgCl2, 2 mM CaCl2, 0.2 mM ZnSO4, 60% glycerol, heparin, E. coli tRNA), 5 uM protein stock (1 ul in 8 ul), ~2 nM RNA, room temp; conditions: protein: recombinant; tags: N-terminal Strep tag, TEV site; label: 32P (radioactive) body label; SL I and III restored

B1: mab-10 part 2 (structured_RNA)
RNA: UAAAUUCCCGCCCCCUUCGCUCGGAGUCAUAUAAUUUCCUUCUCUUCCUAUCACUUUUUUGUCUAGUUUUCAAAAAACCCCCCAUUUUUCCGGCGGUUUUUCAAAAACCAAUGCCAAGCUCUCAUAUAAUGGGAGUCUAAACACAGUUCGGUUCCAAAACCAACGCCCACGGCCCCGCCCCCAAUUAGAUAAUUUAAAUA
CeLIN41 filamin-NHL [1]; tri-loop stem-loops
  binding result: binds

B2: mab-10 part 2 mut-res (structured_RNA)
RNA: B1 RNA with G96C, C108G, C123G, G131C
CeLIN41 filamin-NHL [2]
  binding result: binds

B3: L1 (lin-29A SL I, WT LRE) (structured_RNA)
RNA: GGAGUCCAACUCC
CeLIN41 filamin-NHL [3]; 5 bp stem, tri-loop
  Kd: 1320 nM

B4: mab-10 part 4 (structured_RNA)
RNA: UCGCAUCCAAUGCAUUGCAAGUUGAUUGCUUUUAUAAAUUUUUGGGUCUCGAAGCGAAAAGCCCAUAGGAUUUUCACAAAAAUUUUGCAUUUAAUGCAGUGAAAAUUCAAAAAAUUCAAAGAUUUUUCUGAAUAGAUCAAAUUUUCAAAUUUUCCGGUCAUUCGAAAUGGCCUAAUUUGCUCCAAAAAUUUGAAUAAUCC
CeLIN41 filamin-NHL [1]; tri-loop stem-loops
  binding result: binds

B5: mab-10 part 4 mut-res (structured_RNA)
RNA: B4 RNA with C4G, G12C, C88G, G96C, C159G, G169C
CeLIN41 filamin-NHL [2]
  binding result: binds

B6: Ctrl (5-nt loop) (structured_RNA)
RNA: GCUGACCAACUCC
CeLIN41 filamin-NHL [3]; 5 nt loop
  binding result: no binding

B7: mab-10 condensed 3'UTR (structured_RNA)
RNA: UCUAGUUUUCAAAAAACCCCCCAUUUUUCCGGCGGUUUUUCAAAAACCAAUGCCAAGCUCUCAUAUAAUGGGAGUCUAAACACAGUUCGGUUCCAAAACUGAAAAACUUCAAUUUCGCAUCCAAUGCAUUGCAAGUUGAUUGCUUUUCACAAAAAUUUUGCAUUUAAUGCAGUGAAAAUUUUCCGGUCAUUCGAAAUGGCCUAAUUUGCUCCAAAAA
CeLIN41 filamin-NHL [1]; five tri-loop stem-loops
  binding result: binds

B8: mab-10 condensed 3'UTR mut (structured_RNA)
RNA: B7 RNA with G35C, C62G, C118G, C161G, C188G
CeLIN41 filamin-NHL [1]; five stems disrupted
  binding result: no binding

B9: mab-10 condensed 3'UTR mut-res (structured_RNA)
RNA: B7 RNA with G35C, C47G, C62G, G70C, C118G, G126C, C161G, G169C, C188G, G198C
CeLIN41 filamin-NHL [1]; five stems restored
  binding result: binds

B10: lin-29A 5'UTR (structured_RNA)
RNA: GUUCCGAACCAAUUCGCCUAGCGAACCUUGGAGUCCAACUCCGUUUUUACUCUUUUCUGAAAAGAGCCUACUAAAUAUUGGAACUAUAAUCAAACUAUUCGAUCAAAUCGACACACCUACUAGAUAUCAAAUAUCUAAUACUGGAACCAAGGCUUGGGUAACCUGAAACUGUGCGAAUUUGGAGCAGAAAUAUU
CeLIN41 filamin-NHL [1]; four tri-loop stem-loops
  binding result: binds

B11: lin-29A mut2-res (structured_RNA)
RNA: B10 RNA with G33C, C39G, G101C, C109G
CeLIN41 filamin-NHL [4]
  binding result: binds
